According to patent US20100278838A1, “EPHA2 MONOCLONAL ANTIBODIES AND METHODS OF USE THEREOF” (MEDIMMUNE, LLC, priority 2002, published 2010):
“Also recorded” adds a separate entry of the source.

Assays:
EphA2 = EphA2 tyrosine phosphorylation in MDA-MB-231 cells (immunoprecipitation, phosphotyrosine western blot); type: cell-based; details: MDA-MB-231 monolayers, single dose 5 μg/ml, 37° C.
Experimental: FIGS. 2A-2D: EphA2 antibodies promote EphA2 tyrosine phosphorylation in MDA-MB-231 cells. Monolayers of MDA-MB-231 cells were incubated in the presence of a single dose of 5 μg/ml (A, C) Eph099B-208.261 or (B, D) EA2 for the indicated time at 37° C. Cell lysates were then immunoprecipitated with an EphA2-specific antibody, resolved by SDS-PAGE and subjected to western blot analysis with a phosphotyrosine-specific antibody (A, B). The membranes were stripped and re-probed with the EphA2-specific antibody used in the immunoprecipitation as a loading control (C, D).
Monolayers of MDA-MB-231 cells were incubated in the presence of a single dose of 5 μg/ml Eph099B-233.152 at 37° C. Cell lysates were then immunoprecipitated with D7 (an EphA2-specific antibody), resolved by SDS-PAGE and subjected to western blot analysis with (A) a phosphotyrosine-specific antibody or (B) an EphA2-specific antibody.
EphA2 antibodies promoted tyrosine phosphorylation and degradation of EphA2 in MDA-MB-231 cells. Monolayers of cells were incubated in the presence of EphA2 agonistic antibodies or control at 37° C. Cell lysates were then immunoprecipitated with an EphA2-specific antibody (D7, purchased from Upstate Biologicals, Inc., Lake Placid, N.Y. and deposited with the American Type […] Collection on Dec. 8, 2000, and assigned ATCC number PTA 2755), resolved by SDS-PAGE and subjected to western blot analysis with a phosphotyrosine-specific antibody (PY20 or 4G10, purchased from Upstate Biologicals, Inc., Lake Placid, N.Y.). […] Some membranes were stripped and re-probed with the EphA2-specific antibody used in the immunoprecipitation (D7) as a loading control (FIGS. 2C-2D).
Western blot analyses and immunoprecipitations were performed as described previously (Zantek et al., 1999, Cell Growth Diff. 10:629-38, which is incorporated by reference in its entirety). […] Antibody binding was detected by enhanced chemiluminescence (Pierce, Rockford, Ill.) and autoradiography (Kodak X-OMAT; Rochester, N.Y.).

immobilized EphA2-Fc = biological target: T1, immobilized EphA2-Fc (Homo sapiens, UniProt P29317); experiment: BIACORE surface plasmon resonance kinetic analysis (Koff); type: binding; details: FIG. 15
T1 construct: consisted of the extracellular domain of human EphA2 linked to human immunoglobulin
Text: FIG. 15: Kinetic analysis of EphA2 monoclonal antibodies. BIACORE™ (surface plasmon resonance-based) assays were used to assay the kinetics of EphA2 monoclonal antibody binding to immobilized EphA2-Fc. Eph099B-208.261 is indicated by a solid line, Eph099B-233.152 is indicated by a dotted line, EA2 is indicated by a dashed line, and the negative control is indicated by squares.
The surface plasmon resonance-based BIACORE™ assay was used to measure the Koff rates of the monoclonal antibodies of the invention. IgG present in the hybridoma supernatant was used for measurement.
EphA2-Fc was immobilize to a surface on a CM5 sensorchip using a standard amine (70 μl of a 1:1 mix of NHS/EDC) coupling chemistry. Briefly, a 400 nM solution of EphA2-Fc in 10 mM NaOAc, pH4, was then injected over the activated surface to a density of 1000-1100 RU's. Unused reactive esters were subsequently “capped” with a 70 μl injection of 1M Et-NH2. Similarly, an activated and “capped” control surface was prepared on the same sensor chip without protein to serve as a reference surface.
A 250 μl injection of each of the EphA2 hybridoma supernatants was made over both the EphA2-Fc and control surfaces, and the binding responses were recorded. These supernatants were used undiluted. Following each injection, at least 10 min. of dissociation phase data was collected. […]

[1] = tested on: A549 lung cancer cells implanted subcutaneously; experiment: Tumor growth in vivo, A549 implanted subcutaneously; set-up: species or system athymic mice; details: 6mg/kg intraperitoneally twice a week for 3 weeks; versus PBS or 1A7
Experimental: FIGS. 7A-7D: The EphA2 antibodies, EA2, Eph099B-208.261, and Eph099B-233.152, inhibit tumor cell growth in vivo. MDA-MB-231 breast cancer cells were implanted (A) orthotopically or (B) subcutaneously into athymic mice. (C) A549 lung cancer cells were implanted subcutaneously into athymic mice. After the tumors had grown to an average volume of 100 mm^3, mice were administered 6 mg/kg of the indicated antibody or negative control (PBS or 1A7 antibody) intraperitoneally twice a week for 3 weeks. Tumor growth was assessed and expressed as a ratio of the tumor volume divided by initial tumor volume (100 mm^3). (D) MDA-MB-231 breast cancer cells were implanted subcutaneously into athymic mice. After the tumors had grown to an average volume of 100 mm^3, mice were administered 6 mg/kg of the indicated antibody or negative control intraperitoneally twice a week for 3 weeks. Total tumor volume was determined after sacrifice. Negative control is black, EA2 is white, Eph099B-208.261 is dark grey, and Eph099B-233.152 is light grey.
5×10^6MDA-MB-231 breast cancer cells were implanted orthotopically or subcutaneously and 5×10^6 A549 lung cancer cells were implanted subcutaneously into athymic mice. […] Tumor growth was assessed and expressed either as a ratio of the tumor volume divided by initial tumor volume (100 mm^3) or as total tumor volume. […]

EphA2, sequence (P29317 24-976): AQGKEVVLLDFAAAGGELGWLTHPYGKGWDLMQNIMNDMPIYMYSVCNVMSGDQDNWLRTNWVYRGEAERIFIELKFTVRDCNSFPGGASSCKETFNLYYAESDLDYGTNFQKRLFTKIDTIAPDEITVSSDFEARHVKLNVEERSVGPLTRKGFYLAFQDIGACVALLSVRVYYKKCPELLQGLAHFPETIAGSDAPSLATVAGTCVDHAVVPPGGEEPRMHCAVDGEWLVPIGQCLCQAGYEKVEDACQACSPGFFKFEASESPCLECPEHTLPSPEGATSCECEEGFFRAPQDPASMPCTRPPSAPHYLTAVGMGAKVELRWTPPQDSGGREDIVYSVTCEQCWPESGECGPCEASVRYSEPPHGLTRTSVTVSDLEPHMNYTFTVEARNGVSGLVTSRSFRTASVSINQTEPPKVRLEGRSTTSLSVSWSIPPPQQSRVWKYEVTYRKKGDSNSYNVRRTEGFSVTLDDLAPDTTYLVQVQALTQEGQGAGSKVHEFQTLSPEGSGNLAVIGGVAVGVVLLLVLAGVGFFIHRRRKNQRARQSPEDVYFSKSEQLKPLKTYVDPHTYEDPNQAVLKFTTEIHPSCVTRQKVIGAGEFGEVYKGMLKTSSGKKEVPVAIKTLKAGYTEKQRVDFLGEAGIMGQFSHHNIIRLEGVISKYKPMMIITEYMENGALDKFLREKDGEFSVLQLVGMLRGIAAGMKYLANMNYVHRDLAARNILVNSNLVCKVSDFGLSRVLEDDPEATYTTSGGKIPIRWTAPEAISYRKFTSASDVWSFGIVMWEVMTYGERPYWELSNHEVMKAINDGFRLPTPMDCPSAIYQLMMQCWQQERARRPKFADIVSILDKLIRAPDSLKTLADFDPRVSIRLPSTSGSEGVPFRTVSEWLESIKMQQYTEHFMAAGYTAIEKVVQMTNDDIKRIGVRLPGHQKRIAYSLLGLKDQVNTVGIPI
T1 sequence (P29317 24-537 limits assumed): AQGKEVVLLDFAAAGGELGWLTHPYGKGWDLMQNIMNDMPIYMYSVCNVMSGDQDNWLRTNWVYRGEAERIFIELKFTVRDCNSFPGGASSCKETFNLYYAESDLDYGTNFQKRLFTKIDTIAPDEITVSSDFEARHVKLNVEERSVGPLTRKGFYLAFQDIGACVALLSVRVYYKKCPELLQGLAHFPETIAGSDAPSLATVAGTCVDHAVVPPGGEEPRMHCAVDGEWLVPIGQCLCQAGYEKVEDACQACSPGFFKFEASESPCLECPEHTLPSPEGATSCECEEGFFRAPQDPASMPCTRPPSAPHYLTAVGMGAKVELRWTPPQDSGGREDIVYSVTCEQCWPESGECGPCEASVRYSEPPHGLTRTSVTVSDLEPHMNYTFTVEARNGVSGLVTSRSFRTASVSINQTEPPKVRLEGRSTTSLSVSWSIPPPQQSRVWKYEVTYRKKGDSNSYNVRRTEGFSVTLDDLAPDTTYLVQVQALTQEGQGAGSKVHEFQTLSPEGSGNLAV

Molecule | EphA2 tyrosine phosphorylation (EphA2) | Koff rate compared with EA2 (immobilized EphA2-Fc) | Growth of A549 cells implanted subcutaneously [1]
Eph099B-233.152: EphA2 monoclonal antibody; hybridoma ATCC PTA-5194; VL SEQ ID NO:17, VH SEQ ID NO:21 (antibody, listed as Homo sapiens, V domains shown) VH: EVKLVESGGGLVQPGGSLSLSCAASGFTFTDYSMNWVRQPPGKALEWLGFIRNKANDYTTEYSASVKGRFTISRDNSQSILYLQMNALRAEDSATYYCVRYPRYHAMDSWGQGTSVTVSS VL: DIVLTQSPATLSVTPGDSVNLSCRASQSISNNLHWYQQKSHESPRLLIKYVFQSISGIPSRFSGSGSGTDFTLSINSVETEDFGMYFCQQSNSWPLTFGAGTKLELK | increased EphA2 phosphorylation; also recorded: promotes EphA2 tyrosine phosphorylation | slower Koff rates than EA2 | –
EA2: EphA2 agonistic monoclonal antibody; ATCC deposit no. PTA-4380; co-pending application Ser. No. 10/436,783; VL SEQ ID NO:33, VH SEQ ID NO:37 (antibody, listed as Homo Sapiens, V domains shown) VH: DVKLVESGGGLVKPGGSLKLSCAASGFTFSSYTMSWVRQTPEKRLEWVATISSGGTYTYYPDSVKGRFTISRDNAKNTLYLQMSSLKSEDTAMYYCTREAIFTYWGQGTLVTVSA VL: DIKMTQSPSSMYASLGERVTITCKASQDINNYLSWFQQKPGKSPKTLIYRANRLVDGVPSRFSGSGSGQDYSLTISSLEYEDMGIYYCLKYDEFPYTFGGGTKLEIK | increased EphA2 phosphorylation | – | inhibited
Eph099B-208.261: EphA2 monoclonal antibody; hybridoma ATCC PTA-4573; VL SEQ ID NO:1, VH SEQ ID NO:5 (antibody, listed as Homo sapiens, V domains shown) VH: QVQLQQPGAELVKPGASVKLSCKASGYTFTSYWMHWVKQRPGQGLEWIGMIHPNSGSTNYNEKFKSKATLTVDKSSSTAYMRLSSLTSEDSAVYYCARGGNMVGGGYWGQGTTLTVSS VL: QIVLTQSPALMSASPGEKVTMTCSASSSVSYMYWYQQKPRSSPKPWIYLTTNLASGVPARFSGSGSGTSYSLTISSMEAEDAATYYCQQWSSNPFTFGSGTKLEIR | increased EphA2 phosphorylation | slower Koff rates than EA2 | inhibited
